# IntAct's records for PubMed 25910212
# B1: Keratin, type II cytoskeletal 6A (Homo sapiens), P02538 (parent)
# chain: MASTSTTIRSHSSSRRGFSANSARLPGVSRSGFSSVSVSRSRGSGGLGGACGGAGFGSRSLYGLGGSKRISIGGGSCAISGGYGSRAGGSYGFGGAGSGFGFGGGAGIGFGLGGGAGLAGGFGGPGFPVCPPGGIQEVTVNQSLLTPLNLQIDPTIQRVRAEEREQIKTLNNKFASFIDKVRFLEQQNKVLETKWTLLQEQGTKTVRQNLEPLFEQYINNLRRQLDSIVGERGRLDSELRGMQDLVEDFKNKYEDEINKRTAAENEFVTLKKDVDAAYMNKVELQAKADTLTDEINFLRALYDAELSQMQTHISDTSVVLSMDNNRNLDLDSIIAEVKAQYEEIAQRSRAEAESWYQTKYEELQVTAGRHGDDLRNTKQEIAEINRMIQRLRSEIDHVKKQCANLQAAIADAEQRGEMALKDAKNKLEGLEDALQKAKQDLARLLKEYQELMNVKLALDVEIATYRKLLEGEECRLNGEGVGQVNISVVQSTVSSGYGGASGVGSGLGLGGGSSYSYGSGLGVGGGFSSSSGRAIGGGLSSVGGGSSTIKYTTTSSSSRKSYKH
# partner: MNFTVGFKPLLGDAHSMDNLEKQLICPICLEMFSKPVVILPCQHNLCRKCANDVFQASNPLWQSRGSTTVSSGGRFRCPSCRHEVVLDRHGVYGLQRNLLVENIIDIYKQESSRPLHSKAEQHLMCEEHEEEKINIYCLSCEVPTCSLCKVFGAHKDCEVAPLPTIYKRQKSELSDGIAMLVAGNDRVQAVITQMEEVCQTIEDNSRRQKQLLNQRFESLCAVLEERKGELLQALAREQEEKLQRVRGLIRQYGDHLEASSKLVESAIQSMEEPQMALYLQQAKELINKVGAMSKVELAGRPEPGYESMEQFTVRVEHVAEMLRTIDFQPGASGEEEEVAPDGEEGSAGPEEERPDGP
# Variants of: B1
# Conditions: with tri54_human TRIM54, Q9BYV2
row,Variant,effect of a mutation on the interaction
1,MASTSTTIRSHSSSRRGFSANSARLPGVSRSGFSSVSVSRSRGSGGLGGACGGAGFGSRSLYGLGGSKRISIGGGSCAISGGYGSRAGGSYGFGGAGSGFGFGGGAGIGFGLGGGAGLAGGFGGPGFPVCPPGGIQEVTVNQSLLTPLNLQIDPTIQRVRAEEREQIKTLNNKVASFIDKVRFLEQQNKVLETKWTLLQEQGTKTVRQNLEPLFEQYINNLRRQLDSIVGERGRLDSELRGMQDLVEDFKNKYEDEINKRTAAENEFVTLKKDVDAAYMNKVELQAKADTLTDEINFLRALYDAELSQMQTHISDTSVVLSMDNNRNLDLDSIIAEVKAQYEEIAQRSRAEAESWYQTKYEELQVTAGRHGDDLRNTKQEIAEINRMIQRLRSEIDHVKKQCANLQAAIADAEQRGEMALKDAKNKLEGLEDALQKAKQDLARLLKEYQELMNVKLALDVEIATYRKLLEGEECRLNGEGVGQVNISVVQSTVSSGYGGASGVGSGLGLGGGSSYSYGSGLGVGGGFSSSSGRAIGGGLSSVGGGSSTIKYTTTSSSSRKSYKH [F174V],with no effect
2,MASTSTTIRSHSSSRRGFSANSARLPGVSRSGFSSVSVSRSRGSGGLGGACGGAGFGSRSLYGLGGSKRISIGGGSCAISGGYGSRAGGSYGFGGAGSGFGFGGGAGIGFGLGGGAGLAGGFGGPGFPVCPPGGIQEVTVNQSLLTPLNLQIDPTIQRVRAEEREQIKTLNNKFASFIDKVRFLEQQNKVLETKWTLLQEQGTKTVRQNLEPLFEQYINNLRRQLDSIVGERGRLDSELRGMQDLVEDFKNKYEDEINKRTAAENEFVTLKKDVDAAYMNKVELQAKADTLTDEINFLRALYDAELSQMQTHISDTSVVLSMDNNRNLDLDSIIAEVKAQYEEIAQRSRAEAESWYQTKYEELQVTAGRHGDDLRNTKQEIAEINRMIQRLRSEIDHVKKQCANLQAAIADAEQRGEMALKDAKNKLEGLEDALQKAKQDLARLLKEYQELMNVKLALDVESATYRKLLEGEECRLNGEGVGQVNISVVQSTVSSGYGGASGVGSGLGLGGGSSYSYGSGLGVGGGFSSSSGRAIGGGLSSVGGGSSTIKYTTTSSSSRKSYKH [I462S],with no effect

# Results, then the variant that gave them:
row,effect of a mutation on the interaction,Variant
1,with no effect,MASTSTTIRSHSSSRRGFSANSARLPGVSRSGFSSVSVSRSRGSGGLGGACGGAGFGSRSLYGLGGSKRISIGGGSCAISGGYGSRAGGSYGFGGAGSGFGFGGGAGIGFGLGGGAGLAGGFGGPGFPVCPPGGIQEVTVNQSLLTPLNLQIDPTIQRVRAEEREQIKTLNNKFASFIDKVRFLEQQNKVLETKWTLLQEQGTKTVRQNLEPLFEQYINNLRRQLDSIVGERGRLDSELRGMQDLVEDLKNKYEDEINKRTAAENEFVTLKKDVDAAYMNKVELQAKADTLTDEINFLRALYDAELSQMQTHISDTSVVLSMDNNRNLDLDSIIAEVKAQYEEIAQRSRAEAESWYQTKYEELQVTAGRHGDDLRNTKQEIAEINRMIQRLRSEIDHVKKQCANLQAAIADAEQRGEMALKDAKNKLEGLEDALQKAKQDLARLLKEYQELMNVKLALDVEIATYRKLLEGEECRLNGEGVGQVNISVVQSTVSSGYGGASGVGSGLGLGGGSSYSYGSGLGVGGGFSSSSGRAIGGGLSSVGGGSSTIKYTTTSSSSRKSYKH [F249L]
2,with no effect,MASTSTTIRSHSSSRRGFSASSARLPGVSRSGFSSVSVSRSRGSGGLGGACGGAGFGSRSLYGLGGSKRISIGGGSCAISGGYGSRAGGSYGFGGAGSGFGFGGGAGIGFGLGGGAGLAGGFGGPGFPVCPPGGIQEVTVNQSLLTPLNLQIDPTIQRVRAEEREQIKTLNNKFASFIDKVRFLEQQNKVLETKWTLLQEQGTKTVRQNLEPLFEQYINNLRRQLDSIVGERGRLDSELRGMQDLVEDFKNKYEDEINKRTAAENEFVTLKKDVDAAYMNKVELQAKADTLTDEINFLRALYDAELSQMQTHISDTSVVLSMDNNRNLDLDSIIAEVKAQYEEIAQRSRAEAESWYQTKYEELQVTAGRHGDDLRNTKQEIAEINRMIQRLRSEIDHVKKQCANLQAAIADAEQRGEMALKDAKNKLEGLEDALQKAKQDLARLLKEYQELMNVKLALDVEIATYRKLLEGEECRLNGEGVGQVNISVVQSTVSSGYGGASGVGSGLGLGGGSSYSYGSGLGVGGGFSSSSGRAIGGGLSSVGGGSSTIKYTTTSSSSRKSYKH [N21S]
3,with no effect,MASTSTTIRSHSSSRRGFSANSARLPGVSRSGFSSVSVSRSRGSGGLGGACGGAGFGSRSLYGLGGSKRISIGGGSCAISGGYGSRAGGSYGFGGAGSGFGFGGGAGIGFGLGGGAGLAGGFGGPGFPVCPPGGIQEVTVNQSLLTPLNLQIDPTIQRVRAEEREQIKTLKNKFASFIDKVRFLEQQNKVLETKWTLLQEQGTKTVRQNLEPLFEQYINNLRRQLDSIVGERGRLDSELRGMQDLVEDFKNKYEDEINKRTAAENEFVTLKKDVDAAYMNKVELQAKADTLTDEINFLRALYDAELSQMQTHISDTSVVLSMDNNRNLDLDSIIAEVKAQYEEIAQRSRAEAESWYQTKYEELQVTAGRHGDDLRNTKQEIAEINRMIQRLRSEIDHVKKQCANLQAAIADAEQRGEMALKDAKNKLEGLEDALQKAKQDLARLLKEYQELMNVKLALDVEIATYRKLLEGEECRLNGEGVGQVNISVVQSTVSSGYGGASGVGSGLGLGGGSSYSYGSGLGVGGGFSSSSGRAIGGGLSSVGGGSSTIKYTTTSSSSRKSYKH [N171K]

# Variants of: B1
# Conditions: with tri54_human TRIM54, Q9BYV2
# Remark: another data set of the same source
row,effect of a mutation on the interaction,Variant
1,causing an interaction,MASTSTTIRSHSSSRRGFSANSARLPGVSRSGFSSVSVSRSRGSGGLGGACGGAGFGSRSLYGLGGSKRISIGGGSCAISGGYGSRAGGSYGFGGAGSGFGFGGGAGIGFGLGGGAGLAGGFGGPGFPVCPPGGIQEVTVNQSLLTPLNLQIDPTIQRVRAEEREQIKTLNNKVASFIDKVRFLEQQNKVLETKWTLLQEQGTKTVRQNLEPLFEQYINNLRRQLDSIVGERGRLDSELRGMQDLVEDFKNKYEDEINKRTAAENEFVTLKKDVDAAYMNKVELQAKADTLTDEINFLRALYDAELSQMQTHISDTSVVLSMDNNRNLDLDSIIAEVKAQYEEIAQRSRAEAESWYQTKYEELQVTAGRHGDDLRNTKQEIAEINRMIQRLRSEIDHVKKQCANLQAAIADAEQRGEMALKDAKNKLEGLEDALQKAKQDLARLLKEYQELMNVKLALDVEIATYRKLLEGEECRLNGEGVGQVNISVVQSTVSSGYGGASGVGSGLGLGGGSSYSYGSGLGVGGGFSSSSGRAIGGGLSSVGGGSSTIKYTTTSSSSRKSYKH [F174V]
